One test has as its target T1, PD-L1-hFc.
T1 construct: also called immobilized PD-L1; PD-L1 fused to a human Fc region
The test can be described thus: BLI, immobilized PD-L1-hFc. On the technique in general: Biolayer interferometry detects binding as a change in optical thickness at a sensor tip.

In test [1] the target is T2, Recombinant LRP1 (residues 20-974), StrepII-tagged fusion with the human IgG1 Fc region.
T2 construct: also called LRP1 resin; LRP1 cluster 1B with Nt Strep tags and Ct hFc
T2 sequence (chain, as listed by the source limits assumed): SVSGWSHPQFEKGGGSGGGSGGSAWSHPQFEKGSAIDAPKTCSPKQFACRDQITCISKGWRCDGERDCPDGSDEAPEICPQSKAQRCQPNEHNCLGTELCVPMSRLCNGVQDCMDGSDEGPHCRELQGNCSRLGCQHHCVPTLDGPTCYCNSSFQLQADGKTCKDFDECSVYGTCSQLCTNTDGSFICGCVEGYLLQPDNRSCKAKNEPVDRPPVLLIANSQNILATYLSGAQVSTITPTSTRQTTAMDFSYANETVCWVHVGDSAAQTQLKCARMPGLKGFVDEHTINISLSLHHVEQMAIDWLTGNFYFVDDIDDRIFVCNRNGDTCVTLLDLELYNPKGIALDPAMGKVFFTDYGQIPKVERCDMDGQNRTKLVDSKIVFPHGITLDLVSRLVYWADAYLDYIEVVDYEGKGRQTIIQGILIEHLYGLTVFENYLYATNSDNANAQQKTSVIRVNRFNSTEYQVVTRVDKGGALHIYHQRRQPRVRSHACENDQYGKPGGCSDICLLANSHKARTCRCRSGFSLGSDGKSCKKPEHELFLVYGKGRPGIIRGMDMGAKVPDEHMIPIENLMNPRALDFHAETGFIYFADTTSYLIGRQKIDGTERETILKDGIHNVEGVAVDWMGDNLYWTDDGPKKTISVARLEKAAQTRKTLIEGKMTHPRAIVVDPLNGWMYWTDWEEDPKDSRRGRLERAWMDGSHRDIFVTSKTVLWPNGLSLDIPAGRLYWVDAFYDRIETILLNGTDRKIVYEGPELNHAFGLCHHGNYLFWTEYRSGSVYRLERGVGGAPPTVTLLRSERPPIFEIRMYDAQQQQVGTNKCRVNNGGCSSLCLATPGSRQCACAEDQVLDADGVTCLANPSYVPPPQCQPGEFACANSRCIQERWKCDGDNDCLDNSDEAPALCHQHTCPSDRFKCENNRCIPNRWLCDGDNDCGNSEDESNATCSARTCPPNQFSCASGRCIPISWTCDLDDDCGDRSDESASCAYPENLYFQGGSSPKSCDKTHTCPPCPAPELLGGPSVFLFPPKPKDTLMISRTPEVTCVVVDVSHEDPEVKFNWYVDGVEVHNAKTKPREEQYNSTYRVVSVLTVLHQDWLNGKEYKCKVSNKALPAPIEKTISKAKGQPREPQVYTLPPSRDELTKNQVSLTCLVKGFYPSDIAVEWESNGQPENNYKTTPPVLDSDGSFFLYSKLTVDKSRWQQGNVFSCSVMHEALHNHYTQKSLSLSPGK
Briefly: affinity depletion on LRP1-coated resin, three rounds.

T1 sequence (chain, as listed by the source limits assumed): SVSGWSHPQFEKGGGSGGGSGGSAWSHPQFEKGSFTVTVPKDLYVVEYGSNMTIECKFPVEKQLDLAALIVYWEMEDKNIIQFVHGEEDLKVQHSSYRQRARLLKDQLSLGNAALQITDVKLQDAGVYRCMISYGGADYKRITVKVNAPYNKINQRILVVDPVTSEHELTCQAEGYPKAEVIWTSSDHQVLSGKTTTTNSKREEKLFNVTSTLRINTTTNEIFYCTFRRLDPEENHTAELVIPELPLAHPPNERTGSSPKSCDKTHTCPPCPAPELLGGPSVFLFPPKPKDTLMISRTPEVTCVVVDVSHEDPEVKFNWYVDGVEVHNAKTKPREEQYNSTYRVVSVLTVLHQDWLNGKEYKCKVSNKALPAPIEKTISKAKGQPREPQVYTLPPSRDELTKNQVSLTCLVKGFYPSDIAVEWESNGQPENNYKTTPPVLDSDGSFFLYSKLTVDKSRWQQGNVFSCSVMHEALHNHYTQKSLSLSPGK

B1: A2M-PD1, methylamine-treated (other)
chain: SVSGKPQYMVLVPSLLHTETTEKGCVLLSYLNETVTVSASLESVRGNRSLFTDLEAENDVLHCVAFAVPKSSSNEEVMFLTVQVKGPTQEFKKRTTVMVKNEDSLVFVQTDKSIYKPGQTVKFRVVSMDENFHPLNELIPLVYIQDPKGNRIAQWQSFQLEGGLKQFSFPLSSEPFQGSYKVVVQKKSGGRTEHPFTVEEFVLPKFEVQVTVPKIITILEEEMNVSVCGLYTYGKPVPGHVTVSICRKYSDASDCHGEDSQAFCEKFSGQLNSHGCFYQQVKTKVFQLKRKEYEMKLHTEAQIQEEGTVVELTGRQSSEITRTITKLSFVKVDSHFRQGIPFFGQVRLVDGKGVPIPNKVIFIRGNEANYYSNATTDEHGLVQFSINTTNVMGTSLTVRVNYKDRSPCYGYQWVSEEHEEAHHTAYLVFSPSKSFVHLEPMSHELPCGHTQTVQAHYILNGGTLLGLKKLSFYYLIMAKGGIVRTGTHGLLVKQEDMKGHFSISIPVKSDIAPVARLLIYAVLPTGDVIGDSAKYDVENCLANKVDLSFSPSQSLPASHAHLRVTAAPQSVCALRAVDQSVLLMKPDAELSASSVYNLLPEKDLTGFPGPLNDQDDEDCINRHNVYINGITYTPVSSTNEKDMYSFLEDMGLKAFTNSKIRKPKMCPQLQQYEMHGPEGLRVGFYESDVMGRGHARLVHVEEPHTETVRKYFPETWIWDLVVVNSAGVAEVGVTVPDTITEWKAGAFCLSEDAGLGISSTASLRAFQPFFVELTMPYSVIRGEAFTLKATVLNYLPKCIRVSVQLEASPAFLAVPVEKEQAPHCICANGRQTVSWAVTPKSLGNVNFTVSAEALESQELCGTEVPSVPEHGRKDTVIKPLLVEPEGLEKETTFNSLLCPSGGEVSEELSLKLPPNVVEESARASVSVLGDILGSAMQNTQNLLQMPYGCGEQNMVLFAPNIYVLDYLNETQQLTPEVKSKAIGYLNTGYQRQLNYKHYDGSYSTFGERYGRNQGNTWLTAFVLKTFAQARAYIFIDEAHITQALIWLSQRQKDNGCFRSSGSLLNNAIKGGVEDEVTLSAYITIALLEIPLTVTHPVVRNALFCLESAWKTAQEGDHGSHVYTKALLAYAFALAGNQDKRKEVLKSLNEEAVKKDNSVHWERPQKPKAPVGHFYEPQAPSAEVEMTSYVLLAYLTAQPAPTSEDLTSATNIVKWITKQQNAQGGFSSTQDTVVALHALSKYGAATFTRTGKAAQVTIQSSGTFSSKFQVDNNNRLLLQQVSLPELPGEYSMKVTGEGCVYLQTSLKYNILPEKEEFPFALGVQTLPQTCDEPKAHTSFQISLSVSYTGSRSASNMAIVDVKMVSGFIPLKPTVKMLERSGSGGSGGSGGSGGSGGSDSPDRPWNPPTFSPALLVVTEGDNATFTCSFSNTSESFVLNWYRMSPSNQTDKLAAFPEDRSQPGQDSRFRVTQLPNGRDFHMSVVRARRNDSGTYLCGAISLAPKAQIKESLRAELRVTERRAEGSSGGSGGSGGSGGSNHVSRTEVSSNHVLIYLDKVSNQTLSLFFTVLQDVPVRDLKPAIVKVYDYYETDEFAIAEYNAPCSKDLGNA
modifications: thiol ester aminolysed with methylamine (position not given)
notes: Same chain after methylamine treatment; also called A2M ciRBD PD1
Regarding B1, in the test with PD-L1-hFc, the binding result was “binds”.

B2: non-native A2M-PD1 (component of the untreated preparation) (other)
chain: SVSGKPQYMVLVPSLLHTETTEKGCVLLSYLNETVTVSASLESVRGNRSLFTDLEAENDVLHCVAFAVPKSSSNEEVMFLTVQVKGPTQEFKKRTTVMVKNEDSLVFVQTDKSIYKPGQTVKFRVVSMDENFHPLNELIPLVYIQDPKGNRIAQWQSFQLEGGLKQFSFPLSSEPFQGSYKVVVQKKSGGRTEHPFTVEEFVLPKFEVQVTVPKIITILEEEMNVSVCGLYTYGKPVPGHVTVSICRKYSDASDCHGEDSQAFCEKFSGQLNSHGCFYQQVKTKVFQLKRKEYEMKLHTEAQIQEEGTVVELTGRQSSEITRTITKLSFVKVDSHFRQGIPFFGQVRLVDGKGVPIPNKVIFIRGNEANYYSNATTDEHGLVQFSINTTNVMGTSLTVRVNYKDRSPCYGYQWVSEEHEEAHHTAYLVFSPSKSFVHLEPMSHELPCGHTQTVQAHYILNGGTLLGLKKLSFYYLIMAKGGIVRTGTHGLLVKQEDMKGHFSISIPVKSDIAPVARLLIYAVLPTGDVIGDSAKYDVENCLANKVDLSFSPSQSLPASHAHLRVTAAPQSVCALRAVDQSVLLMKPDAELSASSVYNLLPEKDLTGFPGPLNDQDDEDCINRHNVYINGITYTPVSSTNEKDMYSFLEDMGLKAFTNSKIRKPKMCPQLQQYEMHGPEGLRVGFYESDVMGRGHARLVHVEEPHTETVRKYFPETWIWDLVVVNSAGVAEVGVTVPDTITEWKAGAFCLSEDAGLGISSTASLRAFQPFFVELTMPYSVIRGEAFTLKATVLNYLPKCIRVSVQLEASPAFLAVPVEKEQAPHCICANGRQTVSWAVTPKSLGNVNFTVSAEALESQELCGTEVPSVPEHGRKDTVIKPLLVEPEGLEKETTFNSLLCPSGGEVSEELSLKLPPNVVEESARASVSVLGDILGSAMQNTQNLLQMPYGCGEQNMVLFAPNIYVLDYLNETQQLTPEVKSKAIGYLNTGYQRQLNYKHYDGSYSTFGERYGRNQGNTWLTAFVLKTFAQARAYIFIDEAHITQALIWLSQRQKDNGCFRSSGSLLNNAIKGGVEDEVTLSAYITIALLEIPLTVTHPVVRNALFCLESAWKTAQEGDHGSHVYTKALLAYAFALAGNQDKRKEVLKSLNEEAVKKDNSVHWERPQKPKAPVGHFYEPQAPSAEVEMTSYVLLAYLTAQPAPTSEDLTSATNIVKWITKQQNAQGGFSSTQDTVVALHALSKYGAATFTRTGKAAQVTIQSSGTFSSKFQVDNNNRLLLQQVSLPELPGEYSMKVTGEGCVYLQTSLKYNILPEKEEFPFALGVQTLPQTCDEPKAHTSFQISLSVSYTGSRSASNMAIVDVKMVSGFIPLKPTVKMLERSGSGGSGGSGGSGGSGGSDSPDRPWNPPTFSPALLVVTEGDNATFTCSFSNTSESFVLNWYRMSPSNQTDKLAAFPEDRSQPGQDSRFRVTQLPNGRDFHMSVVRARRNDSGTYLCGAISLAPKAQIKESLRAELRVTERRAEGSSGGSGGSGGSGGSNHVSRTEVSSNHVLIYLDKVSNQTLSLFFTVLQDVPVRDLKPAIVKVYDYYETDEFAIAEYNAPCSKDLGNA
notes: The part of the untreated preparation that is removed by LRP1-based depletion; also called A2M ciRBD PD1
For the molecule B2, the binding result in test [1] was “binds”.

B3: A2M-Nivolumab, pre-activated (non-native) component of the untreated preparation (other)
chain: SVSGKPQYMVLVPSLLHTETTEKGCVLLSYLNETVTVSASLESVRGNRSLFTDLEAENDVLHCVAFAVPKSSSNEEVMFLTVQVKGPTQEFKKRTTVMVKNEDSLVFVQTDKSIYKPGQTVKFRVVSMDENFHPLNELIPLVYIQDPKGNRIAQWQSFQLEGGLKQFSFPLSSEPFQGSYKVVVQKKSGGRTEHPFTVEEFVLPKFEVQVTVPKIITILEEEMNVSVCGLYTYGKPVPGHVTVSICRKYSDASDCHGEDSQAFCEKFSGQLNSHGCFYQQVKTKVFQLKRKEYEMKLHTEAQIQEEGTVVELTGRQSSEITRTITKLSFVKVDSHFRQGIPFFGQVRLVDGKGVPIPNKVIFIRGNEANYYSNATTDEHGLVQFSINTTNVMGTSLTVRVNYKDRSPCYGYQWVSEEHEEAHHTAYLVFSPSKSFVHLEPMSHELPCGHTQTVQAHYILNGGTLLGLKKLSFYYLIMAKGGIVRTGTHGLLVKQEDMKGHFSISIPVKSDIAPVARLLIYAVLPTGDVIGDSAKYDVENCLANKVDLSFSPSQSLPASHAHLRVTAAPQSVCALRAVDQSVLLMKPDAELSASSVYNLLPEKDLTGFPGPLNDQDDEDCINRHNVYINGITYTPVSSTNEKDMYSFLEDMGLKAFTNSKIRKPKMCPQLQQYEMHGPEGLRVGFYESDVMGRGHARLVHVEEPHTETVRKYFPETWIWDLVVVNSAGVAEVGVTVPDTITEWKAGAFCLSEDAGLGISSTASLRAFQPFFVELTMPYSVIRGEAFTLKATVLNYLPKCIRVSVQLEASPAFLAVPVEKEQAPHCICANGRQTVSWAVTPKSLGNVNFTVSAEALESQELCGTEVPSVPEHGRKDTVIKPLLVEPEGLEKETTFNSLLCPSGGEVSEELSLKLPPNVVEESARASVSVLGDILGSAMQNTQNLLQMPYGCGEQNMVLFAPNIYVLDYLNETQQLTPEVKSKAIGYLNTGYQRQLNYKHYDGSYSTFGERYGRNQGNTWLTAFVLKTFAQARAYIFIDEAHITQALIWLSQRQKDNGCFRSSGSLLNNAIKGGVEDEVTLSAYITIALLEIPLTVTHPVVRNALFCLESAWKTAQEGDHGSHVYTKALLAYAFALAGNQDKRKEVLKSLNEEAVKKDNSVHWERPQKPKAPVGHFYEPQAPSAEVEMTSYVLLAYLTAQPAPTSEDLTSATNIVKWITKQQNAQGGFSSTQDTVVALHALSKYGAATFTRTGKAAQVTIQSSGTFSSKFQVDNNNRLLLQQVSLPELPGEYSMKVTGEGCVYLQTSLKYNILPEKEEFPFALGVQTLPQTCDEPKAHTSFQISLSVSYTGSRSASNMAIVDVKMVSGFIPLKPTVKMLERSGSGGSGGSGGSGGSGGSQVQLVESGGGVVQPGRSLRLDCKASGITFSNSGMHWVRQAPGKGLEWVAVIWYDGSKRYYADSVKGRFTISRDNSKNTLFLQMNSLRAEDTAVYYCATNDDYWGQGTLVTVSSGGGGSGGGGSGGGGSEIVLTQSPATLSLSPGERATLSCRASQSVSSYLAWYQQKPGQAPRLLIYDASNRATGIPARFSGSGSGTDFTLTISSLEPEDFAVYYCQQSSNWPRTFGQGTKVEIKGSSGGSGGSGGSGGSNHVSRTEVSSNHVLIYLDKVSNQTLSLFFTVLQDVPVRDLKPAIVKVYDYYETDEFAIAEYNAPCSKDLGNA
Turning to B3, the binding result in test [1] was “binds”.

For the origin of these results see patent US20240374745A1 (AARHUS UNIVERSITET, published 2024).
